Results: US20140341971A1 (LIPOTEK, published 2014)

Target: T1, human DC-SIGN (DC-specific intercellular adhesion molecule 3-grabbing nonintegrin) (human, UniProt Q9NNX6 1-404)
T1 construct: whole, on cells; Target on THP-1 cells transfected with human DC-SIGN and on human moDCs; also called CD209; human DC marker DC-SIGN
T1 sequence (looked up): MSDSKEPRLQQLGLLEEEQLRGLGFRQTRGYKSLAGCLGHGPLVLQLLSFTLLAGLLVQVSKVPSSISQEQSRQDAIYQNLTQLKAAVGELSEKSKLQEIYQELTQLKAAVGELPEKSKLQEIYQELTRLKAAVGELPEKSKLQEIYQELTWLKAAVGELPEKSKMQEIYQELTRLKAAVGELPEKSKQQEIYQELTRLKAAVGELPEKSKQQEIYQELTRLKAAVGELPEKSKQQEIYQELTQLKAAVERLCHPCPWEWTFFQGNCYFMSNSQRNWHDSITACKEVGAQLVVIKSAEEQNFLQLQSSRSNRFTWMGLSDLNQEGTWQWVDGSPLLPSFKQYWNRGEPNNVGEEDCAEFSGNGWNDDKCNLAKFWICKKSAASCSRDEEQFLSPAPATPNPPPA
Assay: confocal microscopy, fluorescent vaccine on human monocyte-derived DCs
Method: FIG. 3: Z-sections through a human monocyte-derived dendritic cell (moDC) incubated with Lipovaxin-MM. […] Cells were placed on coverslips immediately prior to observation under the confocal microscope.

B1: DMS5000 (other)
VH: STEVQLLESGGGLVQPGGSLRLSCAASGFTFDRRAMGWVRQAPGKGLEWVSSIESDGTRTYYADSVKGRFTISRDNSKNTLYLQMNSLRAEDTAVYYCAKHPGSSYVFDYWGQGTLVTVSS
notes: Human VH domain antibody (dAb), made as a secreted protein in E. coli; also called DC-SIGN specific domain antibody (dAb); dAb
B1: binds.
